Data from paper PMC12881670, “Investigation into ligand selectivity and bias at the formyl peptide receptor family” (The Journal of Pharmacology and Experimental Therapeutics, 2025).
Where no end group is shown, it is not given here. The star is where a group is joined. Palmitoyl = CCCCCCCCCCCCCCCC(=O)*

How the values were obtained:
[1] = target: T1, FLAG-Hs_FPR2 C-terminally fused to Renilla Luciferase 8 (human, UniProt P25090 1-351); assay: cell-based or functional assay
T1 sequence (looked up): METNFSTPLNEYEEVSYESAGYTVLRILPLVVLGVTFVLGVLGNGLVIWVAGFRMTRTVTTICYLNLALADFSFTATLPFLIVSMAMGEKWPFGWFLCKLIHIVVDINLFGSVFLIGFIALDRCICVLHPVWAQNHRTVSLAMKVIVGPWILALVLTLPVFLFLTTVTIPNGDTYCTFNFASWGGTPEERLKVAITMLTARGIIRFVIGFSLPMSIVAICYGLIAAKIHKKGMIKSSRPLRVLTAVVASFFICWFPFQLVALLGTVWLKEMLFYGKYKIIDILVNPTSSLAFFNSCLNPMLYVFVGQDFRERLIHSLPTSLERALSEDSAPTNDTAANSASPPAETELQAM

[2] = target: T2, FLAG-Mm_Fpr2 C-terminally fused to Renilla Luciferase 8 (mouse, UniProt O88536 1-351); assay: cell-based or functional assay
T2 sequence (looked up): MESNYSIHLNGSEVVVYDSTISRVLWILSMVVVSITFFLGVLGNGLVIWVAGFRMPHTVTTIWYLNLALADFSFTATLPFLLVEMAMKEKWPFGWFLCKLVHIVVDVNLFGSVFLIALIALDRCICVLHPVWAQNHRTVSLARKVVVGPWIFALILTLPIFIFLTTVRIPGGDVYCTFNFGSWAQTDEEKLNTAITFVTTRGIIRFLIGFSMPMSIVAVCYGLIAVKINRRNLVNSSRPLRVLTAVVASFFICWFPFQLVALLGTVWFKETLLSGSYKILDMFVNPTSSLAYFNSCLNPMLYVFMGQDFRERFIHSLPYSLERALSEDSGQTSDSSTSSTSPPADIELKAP

[3] = target: T3, FLAG-tagged human FPR2 (Hs_FPR2) (human, UniProt P25090 1-351); assay: cell-based or functional assay
T3 sequence (looked up): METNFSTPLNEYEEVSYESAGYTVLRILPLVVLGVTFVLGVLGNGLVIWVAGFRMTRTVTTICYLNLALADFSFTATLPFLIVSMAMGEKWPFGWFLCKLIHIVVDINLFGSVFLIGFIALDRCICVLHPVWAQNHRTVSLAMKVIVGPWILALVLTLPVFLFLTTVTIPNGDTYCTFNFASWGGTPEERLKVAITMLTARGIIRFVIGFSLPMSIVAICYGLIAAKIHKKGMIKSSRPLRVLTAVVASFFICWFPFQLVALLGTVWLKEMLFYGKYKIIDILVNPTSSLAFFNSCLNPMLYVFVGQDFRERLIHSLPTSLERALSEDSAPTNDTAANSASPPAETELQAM

[4] = target: T4, FLAG-tagged mouse Fpr2 (Mm_Fpr2) (mouse, UniProt O88536 1-351); assay: cell-based or functional assay
T4 sequence (looked up): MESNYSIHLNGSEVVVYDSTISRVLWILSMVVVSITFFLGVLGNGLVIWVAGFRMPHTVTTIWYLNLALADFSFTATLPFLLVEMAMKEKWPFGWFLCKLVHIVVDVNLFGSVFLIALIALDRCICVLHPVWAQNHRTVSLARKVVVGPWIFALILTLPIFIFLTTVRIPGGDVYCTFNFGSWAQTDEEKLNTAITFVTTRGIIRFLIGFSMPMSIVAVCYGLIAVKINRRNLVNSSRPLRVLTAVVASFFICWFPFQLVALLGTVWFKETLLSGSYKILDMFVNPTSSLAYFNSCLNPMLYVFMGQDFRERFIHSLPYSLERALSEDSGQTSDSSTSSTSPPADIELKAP

[5] = target: T3, FLAG-tagged human FPR2 (Hs_FPR2); assay: cell-based or functional assay; remark: listed apart in the source
[6] = target: T1, FLAG-Hs_FPR2 C-terminally fused to …; assay: cell-based or functional assay; remark: listed apart in the source
[7] = target: T2, FLAG-Mm_Fpr2 C-terminally fused to …; assay: cell-based or functional assay; remark: listed apart in the source
[8] = target: T3, FLAG-tagged human FPR2 (Hs_FPR2); assay: flow cytometry on cells; competition binding: HEK293 cells stably expressing the receptor, lifted in PBS, on ice 90 min with 10 nM K(5/6-FAM)-WKYMVm and increasing unlabeled ligand; mean fluorescence of 5000 cells as % of that without competitor; One site-Fit logIC50
[9] = target: T4, FLAG-tagged mouse Fpr2 (Mm_Fpr2); assay: as above
[10] = target: T4, FLAG-tagged mouse Fpr2 (Mm_Fpr2); assay: cell-based or functional assay; remark: listed apart in the source

BRET of receptor-RLuc8 with Venus-mGsi: Emax (% of 1 μM WKYMVm) [1]: 19.4% | BRET of receptor-RLuc8 with Venus-mGsi: Log EC50 (M) [1]: -6.78 log M | BRET of receptor-RLuc8 with Venus-mGsi: Emax (% of 1 μM WKYMVm) [2]: 24.2% | BRET of receptor-RLuc8 with Venus-mGsi: Log EC50 (M) [2]: -6.78 log M | ERK1/2 phosphorylation (Western blot): Emax (% of 1 μM WKYMVm) [3]: 80.8% | ERK1/2 phosphorylation (Western blot): Log EC50 (M) [3]: -7.47 log M | ERK1/2 phosphorylation (Western blot): Emax (% of 1 μM WKYMVm) [4]: 141% | ERK1/2 phosphorylation (Western blot): Log EC50 (M) [4]: -7.27 log M | TruPath BRET: dissociation of Gαi2 from β3γ9, EC50 (receptor not given) [5]: 130 nM | BRET of receptor-RLuc8 with Arrestin 3-YFP: Emax (% of 1 μM WKYMVm) [6]: 25.5% | BRET of receptor-RLuc8 with Arrestin 3-YFP: Log EC50 (M) [6]: -6.55 log M | BRET of receptor-RLuc8 with Arrestin 3-YFP: Emax (% of 1 μM WKYMVm) [7]: 33.4% | BRET of receptor-RLuc8 with Arrestin 3-YFP: Log EC50 (M) [7]: -6.58 log M | Log IC50 [8]: -5.27 log M | Max Comp (%) [8]: 100% | Log IC50 [9]: -5.38 log M | Max Comp (%) [9]: 100% | receptor internalization (flow cytometry): Emax (% of 1 μM WKYMVm) [10]: 12.3% | receptor internalization (flow cytometry): Log EC50 (M) [10]: -10.5 log M
B1: F2Pal10 (Pal-Pal-KIHKKGMIKS) (peptide)
peptide: {Palmitoyl-Palmitoyl}-KIHKKGMIKS
notes: Pal is printed twice; the text speaks of N-terminal palmitoylation as the last step of the synthesis; also called pepducin; source: synthetic peptide (Fmoc solid phase, purified by preparative RP-HPLC)
